Our source for the % MT bundling from tau-expressing cells values is patent US20130251731A1, “Tau Acetylation in the Pathogenesis of Alzheimers Disease and Other Related Tauopathies” (THE TRUSTEES OF THE UNIVERSITY OF PENNSYLVANIA, priority 2012, published 2013).

This assay addresses microtubules of transfected QBI-293 cells. Kind of assay: cell-based or functional assay.
“tau-4KR non-mimetic mutant (T40 K163/280/281/369R) (from UniProt P10636 1-441)” yielded a % MT bundling from tau-expressing cells of 50 % bundling. The same measure for “tau-4KQ acetylation mimetic (T40 K163/280/281/369Q) (from UniProt P10636 1-441)”: 7 % bundling; for “wild-type tau-T40 (2N4R), not acetylated (from UniProt P10636 2-441)”: 55 % bundling.

The substance “tau-T40 K280Q mimetic (from UniProt P10636 1-441)” gave a % MT bundling from tau-expressing cells of 40 % bundling.
